Assay results published in patent US20260008817A1, “CYCLIC PEPTIDE OR SALT THEREOF, AND USES THEREOF” (FUJIFILM Corporation, priority 2023, published 2026).
Positions of bridges follow the written chain, without caps; N, C: chain ends. Non-standard residues stand in square brackets, D forms with d. No end group written: not given here. COCH2 = acetyl group that carries the bridge; NMeL = CN[C@@H](CC(C)C)C(=O)O; hLeu = CC(C)CC[C@H](N)C(=O)O; hCys = N[C@@H](CCS)C(=O)O; Orn = NCCC[C@H](N)C(=O)O; Dab = NCC[C@H](N)C(=O)O; Dap = NC[C@H](N)C(=O)O

B1: cyclic peptide SEQ ID NO: 327 (peptide)
peptide: A[hCys]VWTFDRHAQEISQALHK(COCH2)VKKK
modifications: thioether 2-19
B2: cyclic peptide SEQ ID NO: 328 (peptide)
peptide: A[hCys]VWTFDRHAQEISQALH[Orn](COCH2)VKKK
modifications: thioether 2-19
B3: cyclic peptide SEQ ID NO: 329 (peptide)
peptide: A[hCys]VWTFDRHAQEISQALH[Dab](COCH2)VKKK
modifications: thioether 2-19
B4: cyclic peptide SEQ ID NO: 330 (peptide)
peptide: A[hCys]VWTFDRHAQEISQALH[Dap](COCH2)VKKK
modifications: thioether 2-19
B5: cyclic peptide SEQ ID NO: 331 (peptide)
peptide: AK(COCH2)VWTFDRHAQEISQALH[hCys]VKKK
modifications: thioether 2-19
B6: cyclic peptide SEQ ID NO: 332 (peptide)
peptide: A[Orn](COCH2)VWTFDRHAQEISQALH[hCys]VKKK
modifications: thioether 2-19
B7: cyclic peptide SEQ ID NO: 333 (peptide)
peptide: A[Dab](COCH2)VWTFDRHAQEISQALH[hCys]VKKK
modifications: thioether 2-19
B8: cyclic peptide SEQ ID NO: 334 (peptide)
peptide: A[Dap](COCH2)VWTFDRHAQEISQALH[hCys]VKKK
modifications: thioether 2-19
B9: cyclic peptide SEQ ID NO: 337 (peptide)
peptide: F[Orn](COCH2)VYTFDAHAHSLDAALN[hCys]IKKK
modifications: thioether 2-19
B10: cyclic peptide SEQ ID NO: 338 (peptide)
peptide: FXVYTFDAHAHSLDAALNXIKKK
modifications: (Orn(propyl)) and (Hcy) homocysteine joined by a thioether ring
B11: cyclic peptide SEQ ID NO: 339 (peptide)
peptide: F[Orn](COCH2)VYTFDAHAHS[NMeL]DAALN[hCys]IKKK
modifications: thioether 2-19
B12: cyclic peptide SEQ ID NO: 340 (peptide)
peptide: F[Orn](COCH2)VYTFDAHAHS[hLeu]DAALN[hCys]IKKK
modifications: thioether 2-19
B13: cyclic peptide SEQ ID NO: 341 (peptide)
peptide: [Orn](COCH2)VYTFDAHAHSLDAALN[hCys]IKKK
modifications: thioether 1-18
B14: cyclic peptide SEQ ID NO: 342 (peptide)
peptide: F[Orn](COCH2)VYTFDAHAHSLDAALN[hCys]KKK
modifications: thioether 2-19
B15: cyclic peptide SEQ ID NO: 336 (peptide)
peptide: ACVWTFDRHAQEISQALHCVKKK
modifications: disulfide 2-19

target: Recombinant Human FGFR1 alpha (IIIc) Fc Chimera Protein, CF (R&D systems, 658-FR-050) (human) (UniProt P11362); test: SPR grade, peptide 10 nmol/L over FGFR1-Fc; conditions: scale: moleculesofcyclicpeptide/onemoleculeoffgfr
Sequence (P11362 22-376, change not shown): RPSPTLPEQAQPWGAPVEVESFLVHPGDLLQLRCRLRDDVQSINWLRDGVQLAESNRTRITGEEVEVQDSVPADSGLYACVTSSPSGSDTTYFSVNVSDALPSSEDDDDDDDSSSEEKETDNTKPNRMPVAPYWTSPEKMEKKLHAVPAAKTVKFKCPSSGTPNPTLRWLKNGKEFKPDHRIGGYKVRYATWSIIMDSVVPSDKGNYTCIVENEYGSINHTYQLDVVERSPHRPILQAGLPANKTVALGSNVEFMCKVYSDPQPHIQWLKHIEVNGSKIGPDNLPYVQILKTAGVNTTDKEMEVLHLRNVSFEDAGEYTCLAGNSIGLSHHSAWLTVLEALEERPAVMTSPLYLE

Row | Molecule | binding amount (SPR, molecules of cyclic peptide bound per one molecule of FGFR at 10 nmol/L peptide)
1 | B1 | > 0.7
2 | B2 | > 0.7
3 | B3 | 0.5 to 0.7
4 | B4 | > 0.7
5 | B5 | 0.5 to 0.7
6 | B6 | > 0.7
7 | B7 | > 0.7
8 | B8 | > 0.7
9 | B9 | 0.1 to 0.5
10 | B10 | 0.1 to 0.5
11 | B11 | 0.1 to 0.5
12 | B12 | 0.5 to 0.7
13 | B13 | 0.1 to 0.5
14 | B14 | 0.1 to 0.5
15 | B15 | < 0.1

target: T1, Recombinant Human FGFR1 alpha (IIIc) Fc Chimera Protein (Homo sapiens, UniProt P11362); test: ELISA binding affinity of enzymatically synthesized peptide to FGFR; conditions: ELISA luminescence signal at 10 nmol/L peptide, SEQ ID NO: 239 standardized to 1; enzyme synthesis product
T1 construct: purchased R&D systems 658-FR-050
T1 sequence (P11362 with tags, fused parts or gaps limits assumed): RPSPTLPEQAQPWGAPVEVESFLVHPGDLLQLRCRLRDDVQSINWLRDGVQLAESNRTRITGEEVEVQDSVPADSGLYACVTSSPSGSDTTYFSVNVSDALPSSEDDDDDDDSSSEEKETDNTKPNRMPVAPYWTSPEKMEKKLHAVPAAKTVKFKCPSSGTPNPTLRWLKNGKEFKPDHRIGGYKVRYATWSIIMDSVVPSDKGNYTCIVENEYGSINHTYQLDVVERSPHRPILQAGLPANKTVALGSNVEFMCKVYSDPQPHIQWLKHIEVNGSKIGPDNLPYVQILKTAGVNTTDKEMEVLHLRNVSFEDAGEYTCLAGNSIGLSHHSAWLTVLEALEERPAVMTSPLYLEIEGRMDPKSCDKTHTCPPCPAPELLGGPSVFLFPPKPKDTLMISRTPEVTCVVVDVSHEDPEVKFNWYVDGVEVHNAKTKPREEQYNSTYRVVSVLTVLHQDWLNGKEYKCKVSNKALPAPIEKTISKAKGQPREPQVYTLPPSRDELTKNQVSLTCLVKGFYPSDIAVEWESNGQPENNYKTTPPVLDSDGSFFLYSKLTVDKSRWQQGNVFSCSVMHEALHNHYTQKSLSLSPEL
How it was run: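 Cell-free PUREfrex-translated cyclic peptides (Myc/HiBiT-tagged, quantified by HiBiT luminescence) bound 3 h at room temperature to immobilized FGFR1α(IIIc)-Fc, detected with anti-Myc and chemiluminescence. FGFR-specific signal at 10 nmol/L normalized to a reference cyclic peptide and graded A–D.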

Row | Molecule | Evaluation result of binding affinity to FGFR
16 | 126 (ICVYTFDAHTHSLHAALTKI; Description of Artificial Sequence: Cyclic peptide) [compound 126] | C (0.1 or more and less than 0.5)
17 | 255 (FCTLWQFGNLVWTHESPFIK(COCH2)Q; thioether 2-20 (inferred)) [compound 255] | C (0.1 or more and less than 0.5)
18 | 227 (ICVYTFDAHAHSLHAALTK(COCH2)V; thioether 2-19 (inferred)) [compound 227] | A (0.7 or more)
19 | 198 (ICVYTFDAHAHSLHWALTK(COCH2)I; thioether 2-19 (inferred)) [compound 198] | C (0.1 or more and less than 0.5)
20 | 246 (PCIYTFDQSAIKYKIGFVLRK(COCH2)V; thioether 2-21 (inferred)) [compound 246] | C (0.1 or more and less than 0.5)
21 | 128 (ICVYTFDAHEHSLHAALTKI; Description of Artificial Sequence: Cyclic peptide) [compound 128] | C (0.1 or more and less than 0.5)
22 | 134 (ICVYTFDAHALSLHAALTKI; Description of Artificial Sequence: Cyclic peptide) [compound 134] | A (0.7 or more)
23 | 306 (ICVYTFDAHAHSLDDALNK(COCH2)Q; thioether 2-19 (inferred)) [compound 306] | A (0.7 or more)
24 | 105 (ICVYTFDALAHSLHAALTKI; Description of Artificial Sequence: Cyclic peptide) [compound 105] | A (0.7 or more)
25 | 41 (PCVYTFDAHAHSLHAALTK(COCH2)I; thioether 2-19 (inferred)) [compound 41] | A (0.7 or more)
26 | 98 (ICVYTFDSHAHSLHAALTK(COCH2)I; thioether 2-19 (inferred)) [compound 98] | A (0.7 or more)
27 | 303 (ICVYTFDAHAHSLDDALTK(COCH2)V; thioether 2-19 (inferred)) [compound 303] | A (0.7 or more)
28 | 166 (ICVYTFDAHAHSVHAALTK(COCH2)I; thioether 2-19 (inferred)) [compound 166] | A (0.7 or more)
29 | 258 (VCVRPIFIFSFRAPFNAVDWK(COCH2)N; thioether 2-21 (inferred)) [compound 258] | A (0.7 or more)
30 | 197 (ICVYTFDAHAHSLHYALTK(COCH2)I; thioether 2-19 (inferred)) [compound 197] | C (0.1 or more and less than 0.5)
31 | 170 (ICVYTFDAHAHSQHAALTK(COCH2)I; thioether 2-19 (inferred)) [compound 170] | C (0.1 or more and less than 0.5)
32 | 326 (IK(COCH2)VYTFDAHAHSLDAALTCI; thioether 2-19 (inferred)) [compound 326] | B (0.5 or more and less than 0.7)
33 | 321 (FCVYTFDAHAHSLDDALNK(COCH2)Q; thioether 2-19 (inferred)) [compound 321] | A (0.7 or more)
34 | 116 (ICVYTFDAEAHSLHAALTKI; Description of Artificial Sequence: Cyclic peptide) [compound 116] | A (0.7 or more)
35 | 261 (LCYINLFTHTKV; Description of Artificial Sequence: Cyclic peptide) [compound 261] | C (0.1 or more and less than 0.5)
36 | 148 (ICVYTFDAHAHGLHAALTK(COCH2)I; thioether 2-19 (inferred)) [compound 148] | C (0.1 or more and less than 0.5)
37 | 125 (ICVYTFDAHSHSLHAALTKI; Description of Artificial Sequence: Cyclic peptide) [compound 125] | C (0.1 or more and less than 0.5)
38 | 72 (ICVYRFDAHAHSLHAALTK(COCH2)I; thioether 2-19 (inferred)) [compound 72] | C (0.1 or more and less than 0.5)
39 | 209 (ICVYTFDAHAHSLHASLTK(COCH2)I; thioether 2-19 (inferred)) [compound 209] | C (0.1 or more and less than 0.5)
40 | 159 (ICVYTFDAHAHELHAALTK(COCH2)I; thioether 2-19 (inferred)) [compound 159] | A (0.7 or more)
41 | 157 (ICVYTFDAHAHTLHAALTK(COCH2)I; thioether 2-19 (inferred)) [compound 157] | A (0.7 or more)
42 | 91 (ICVYTFDLHAHSLHAALTK(COCH2)I; thioether 2-19 (inferred)) [compound 91] | C (0.1 or more and less than 0.5)
43 | 165 (ICVYTFDAHAHSIHAALTK(COCH2)I; thioether 2-19 (inferred)) [compound 165] | A (0.7 or more)
44 | 181 (ICVYTFDAHAHSLVAALTK(COCH2)I; thioether 2-19 (inferred)) [compound 181] | B (0.5 or more and less than 0.7)
45 | 320 (FCVYTFDAHAHSLHDALNK(COCH2)Q; thioether 2-19 (inferred)) [compound 320] | A (0.7 or more)
